Columns and labels:
[1] = biological target: T1, soluble human αKlotho (recombinant) (human, UniProt Q9UEF7 34-981); assay: SPR (ProteOn XPR36), Fab captured by anti-IgG(H+L), human αKlotho injected in serial dilutions, Langmuir fit
T1 construct: also called Hu aKL; recombinant human αKlotho
T1 sequence (looked up): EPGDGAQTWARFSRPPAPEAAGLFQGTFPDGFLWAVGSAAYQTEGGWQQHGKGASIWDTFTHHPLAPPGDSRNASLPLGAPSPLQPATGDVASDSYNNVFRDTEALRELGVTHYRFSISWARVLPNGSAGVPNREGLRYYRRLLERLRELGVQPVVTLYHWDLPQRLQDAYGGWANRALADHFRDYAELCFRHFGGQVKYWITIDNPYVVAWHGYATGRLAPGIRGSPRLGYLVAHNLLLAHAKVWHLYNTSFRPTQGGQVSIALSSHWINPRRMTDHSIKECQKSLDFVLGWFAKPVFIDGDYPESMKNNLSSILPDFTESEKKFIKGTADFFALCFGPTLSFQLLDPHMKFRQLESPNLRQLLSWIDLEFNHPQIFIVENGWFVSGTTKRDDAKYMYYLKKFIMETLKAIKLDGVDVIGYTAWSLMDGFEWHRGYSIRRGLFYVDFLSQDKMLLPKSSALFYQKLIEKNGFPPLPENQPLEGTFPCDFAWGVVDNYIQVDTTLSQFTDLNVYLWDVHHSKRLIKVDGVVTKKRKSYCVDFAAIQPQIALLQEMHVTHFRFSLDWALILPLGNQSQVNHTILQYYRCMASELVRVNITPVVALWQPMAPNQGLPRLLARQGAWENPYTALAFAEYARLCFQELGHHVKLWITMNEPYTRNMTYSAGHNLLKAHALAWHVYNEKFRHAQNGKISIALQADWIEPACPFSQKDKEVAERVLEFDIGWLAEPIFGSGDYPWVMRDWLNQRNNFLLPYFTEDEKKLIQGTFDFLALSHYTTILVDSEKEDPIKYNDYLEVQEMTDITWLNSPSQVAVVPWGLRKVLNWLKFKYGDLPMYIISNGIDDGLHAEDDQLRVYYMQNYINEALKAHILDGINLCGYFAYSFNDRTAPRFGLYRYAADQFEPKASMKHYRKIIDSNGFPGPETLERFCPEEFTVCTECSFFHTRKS
Procedure: (§1) Estimated affinities against human and mouse antigen for select αKlotho Fabs were obtained by surface plasmon resonance on a ProteOn XPR36 (FIG. 17). Fabs were captured using an anti-IgG(H+L) antibody and serial dilutions of αKlotho were injected. Binding curves were fitted to the Langmuir model. (A) Determined Kon, Koff and KD values. (B) and (C) Binding curves for human and mouse antigen respectively.

neutravidin = biological target: T2, neutravidin (UniProt P02701 25-152); assay: Fab ELISA, Fab 5 ug/ml on immobilised antigen, anti-Flag-HRP, A450
T2 construct: also called NA; NAV
Procedure: Fab ELISA using both human and mouse αKlotho was carried out for assessing cross-reactivity to human and mouse αKlotho (FIG. 16). Fabs (5 ug/ml) were incubated with immobilized αKlotho human, mouse, or neutravidin (NA) and SBA as negative controls. After washing off unbound Fab, bound Fab were detected using an HRP-conjugated anti-Flag antibody (Fabs have Falg tag on the end of their light chains). Colorimetric HRP reagents allow for absorbance readings at 450 nm.

[2] = biological target: T1, soluble human αKlotho (recombinant); assay: SPR (ProteOn XPR36), Fab captured by anti-IgG(H+L), human αKlotho injected in serial dilutions, Langmuir fit [continued) B.]
Procedure: as §1

[3] = biological target: T3, extracellular domain (ECD) of human αKlotho, amino acids E34-S981 with C-terminal 6-His tag (R&D Systems … (human, UniProt Q9UEF7 34-981)); assay: SPR, Fab captured by anti-H+L IgG, αKlotho injected at 50 to 6.25 ug/ml, Langmuir fit
T3 construct: range 34-981; also called αKlotho (aa34-981); target antigen
T3 sequence: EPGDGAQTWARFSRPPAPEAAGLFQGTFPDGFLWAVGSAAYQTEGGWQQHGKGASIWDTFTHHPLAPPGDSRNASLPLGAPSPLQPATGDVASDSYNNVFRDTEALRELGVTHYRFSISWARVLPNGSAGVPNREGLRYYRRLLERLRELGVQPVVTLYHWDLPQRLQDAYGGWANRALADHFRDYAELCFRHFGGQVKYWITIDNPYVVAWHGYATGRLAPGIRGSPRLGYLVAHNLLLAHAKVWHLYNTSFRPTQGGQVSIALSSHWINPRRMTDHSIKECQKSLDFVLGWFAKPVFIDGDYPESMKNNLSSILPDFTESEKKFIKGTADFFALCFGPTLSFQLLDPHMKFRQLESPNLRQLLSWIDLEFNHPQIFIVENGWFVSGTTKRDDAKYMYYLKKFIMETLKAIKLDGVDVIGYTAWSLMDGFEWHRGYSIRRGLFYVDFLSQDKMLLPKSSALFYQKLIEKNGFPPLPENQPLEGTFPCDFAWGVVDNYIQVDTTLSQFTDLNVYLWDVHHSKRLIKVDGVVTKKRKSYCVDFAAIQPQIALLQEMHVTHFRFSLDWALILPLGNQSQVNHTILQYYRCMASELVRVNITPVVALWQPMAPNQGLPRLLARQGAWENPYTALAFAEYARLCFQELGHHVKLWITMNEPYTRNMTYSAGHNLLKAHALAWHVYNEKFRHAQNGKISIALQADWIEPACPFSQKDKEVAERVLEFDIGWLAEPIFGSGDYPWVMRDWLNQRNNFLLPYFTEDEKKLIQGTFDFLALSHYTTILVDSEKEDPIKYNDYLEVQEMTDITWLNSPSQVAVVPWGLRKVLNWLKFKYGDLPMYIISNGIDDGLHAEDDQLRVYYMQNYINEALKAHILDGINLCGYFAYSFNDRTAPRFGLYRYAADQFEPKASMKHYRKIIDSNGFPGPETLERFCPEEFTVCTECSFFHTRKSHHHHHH
Procedure: Affinity estimates for each of the antibodies were determined by surface plasmon resonance (SPR). Fabs were immobilized using an anti-H+L antibody and serial dilutions of αKlotho were injected.

T2 sequence (P02701 25-152): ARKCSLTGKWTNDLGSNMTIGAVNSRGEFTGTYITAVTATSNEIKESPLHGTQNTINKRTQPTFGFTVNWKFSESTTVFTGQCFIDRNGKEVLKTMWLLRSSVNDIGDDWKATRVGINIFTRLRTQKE

Kd [1]: 1.02 nM
koff [1]: 0.000315 s⁻¹
kon [1]: 308000 M⁻¹ s⁻¹
binding result (neutravidin): no binding (tested: 5 ug/ml)
Kd [2]: 1.02 nM
koff [2]: 0.000315 s⁻¹
kon [2]: 308000 M⁻¹ s⁻¹
Kd [3]: 1.08 nM
koff [3]: 0.000389 s⁻¹
kon [3]: 360000 M⁻¹ s⁻¹
B1: sb106 Fab (Fab, V domains shown)
VH: EVQLVESGGGLVQPGGSLRLSCAASGFNISYYSIHWVRQAPGKGLEWVAYISPSYGYTSYADSVKGRFTISADTSKNTAYLQMNSLRAEDTAVYYCARYYVYASHGWAGYGMDYWGQGTLVTVSS
VL: DIQMTQSPSSLSASVGDRVTITCRASQSVSSAVAWYQQKPGKAPKLLIYSASSLYSGVPSRFSGSRSGTDFTLTISSLQPEDFATYYCQQAGYSPITFGQGTKVEIKR
notes: also called Fsb106; clone 48
